Patent US20080199481A1 (AstraZeneca / MedImmune, published 2008)
“And” between values parts separate entries of the source, which are not always exact repeats. Identical values can stand only once.

B1: Antibody 1 (germlined IgG1) (antibody, V domains shown)
VH: EVQLLESGGGLVQPGGSLRLSCAASGFTFGNSWMSWVRQAPGKGLEWVSAISGSGGSTYYADSVKGRFTISRDNSKNTLYLQMNSLRAEDTAVYYCTRDLPGIAVAGYWGQGTLVTVSS
VL: DTQMTQSPSTLSASVGDRVTITCRASEGIYHWLAWYQQKPGKAPKLLIYKASSLASGVPSRFSGSGSGTEFTLTISSLQPDDFATYYCQQYSNYPLTFGGGTKLEIKR
notes: also called germlined Antibody 1 IgG1; antibody 1 (IgG1)
B3: Human CXCL13 (MEL cell derived), unglycosylated (ligand)
chain: VLEVYYTSLRCRCVQESSVFIPRRFIDRIQILPRGNGCPRKEIIVWKKNKSIVCVDPQAEWIQRMMEVLRKRSSSTLPVPVF
notes: also called hCXCL13; Unglycosylated hCXCL13
B4: Cynomolgus CXCL13 (MEL cell derived) (ligand)
chain: VLEVYYTHLRCRCVQESSVFIPRRFIDRIQISPRGNGCPRKEIIVWKKNKSVVCVDPQAEWIQRIMEMLRKKSSSTPPVPVF
modifications: glycosylated (site not stated)
notes: also called Cyno CXCL13; glycosylated cyno CXCL13

Experiments:
[1] = molecular target: B3; assay: SPR (BIAcore 2000), IgG captured on Protein G', human CXCL13 flowed; average of the 3 experiments of Table 10a
Description: (§1) Standard amine linkage chemistry was employed to create blank and 265 RU surfaces of Protein G′ (Sigma P4689) on Flow cells (Fc) 1 and 2, respectively, of a normalized CM5 chip (BIAcore, BR-1000-14). This Fc 2 Protein G′ surface was used to capture 240-385 RUs Antibody 1 (germlined IgG₁).

[2] = molecular target: B3; assay: cell-based or functional assay
[3] = molecular target: B3; assay: cell-based or functional assay; remark: listed apart in the source
[4] = molecular target: B4; assay: cell-based or functional assay
[5] = molecular target: B4; assay: SPR (BIAcore 2000), IgG amine-coupled to a CM3 chip, cyno CXCL13 0.10-0.60 nM flowed; 1:1 Langmuir (n=1, initial data)
Description: (§2) Antibodies were diluted to 1.0 μg mL-1 in 10 mM acetate buffer pH 4.5. Standard amine linkage chemistry (using amine coupling kit BR-1000-50) was employed to create blank (Fc 1) and 500 RU surfaces of IgG on a CM3 chip (BIAcore, BR-1005-41, lot: 1160100 expiry April '07). The wash solution employed was Glycine pH 2.0.
(§3) Flow of human and cynomolgus CXCL13 over chip surfaces. A dilution series of each CXCL13 (0.10, 0.20, 0.30, 0.40, 0.50 and 0.60 nM) was constructed in HBS-EP buffer and flowed at 30 μL min-1 over all flow cells (association time of 4 minutes, dissociation for 10 minutes and regeneration with two 20 μL pulses of 10 mM Glycine pH 2.0). Blank injections were made with the same buffer. All solutions were prepared and stored in polypropylene.

CXCL3 (GROγ) = molecular target: T1, CXCL3 (GROγ) (UniProt P19876 35-107); assay: CXCL13 FLISA competition assay (FMAT, biotinylated human CXCL13 on streptavidin beads)
T1 construct: also called CXCL3 (R&D Systems)
T1 sequence (looked up): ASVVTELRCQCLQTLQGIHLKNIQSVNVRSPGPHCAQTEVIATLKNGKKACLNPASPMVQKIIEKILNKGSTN
Description: (§4) Samples and reagents were diluted in Assay Buffer (Phosphate Buffered Saline with 0.1% BSA, 0.1% Tween-20 and 0.01% sodium azide). 0.25 nM biotinylated CXCL13 (Almac) was pre-incubated with 0.004% w/v 6-8 μm streptavidin coated polystyrene particles (Spherotec SVP-60-5) for 1 hour at room temperature. The beads were then centrifuged at 3000 rpm for 5 minutes, the supernatant discarded and the pellet resuspended in the original volume of assay buffer to give a 0.004% w/v bead/biotinylated humanCXCL13 mix. 10 μL competitor, assay buffer (total binding control) or excess humanCXCL13 (Non specific binding (NSB) control) was added to a 384 well clear-bottomed non-binding surface assay plate (Costar 3655). 10 μL 5 nM Goat anti-human (H+L) Alexa Fluor®-647 (Invitrogen A21445), 10 μL 0.31 nM Antibody 1 (germlined IgG) and 20 μL Bead/biotinylated CXCL13 mix were then added and the plates incubated for 4 hours at room temperature. FL1 signal was read on the Applied Biosystems Cellular Detection System 8200. Data was analysed using the Wang Goldman algorithm with gating of size 3-12, colour ratio <0.4, minimum count 20.
(§5) Specificity of the germlined Antibody 1 IgG₁ for human CXCL13 (MEL cell derived) over other members of the CXC family of chemokines was determined using the CXCL13 FLISA (Fluorescence linked immunosorbent assay). In this assay the chemokines CXCL3 (R&D Systems), CXCL5 (R&D Systems), CXCL6 (R&D Systems), CXCL8 (R&D Systems), CXCL10 (R&D Systems) and CXCL12 (Peprotech) were tested for competition with biotinylated human CXCL13 (Almac) immobilised on a streptavidin bead for binding to germlined Antibody 1 IgG₁. The biotinylated human CXCL13 antibody-binding interaction was detected with a fluorescently tagged anti-human IgG antibody using Fluorescence Microvolume assay Technology (refer to “Assay Materials and Methods” for details). Standard chemokine names (Zlotnik and Yoshie, 2000) are given together with their most commonly used synonym.

CXCL5 (ENA-78) = molecular target: T2, CXCL5 (ENA-78) (UniProt P42830 37-114, limits assumed); assay: as above
T2 construct: also called CXCL5 (R&D Systems)
T2 sequence (looked up): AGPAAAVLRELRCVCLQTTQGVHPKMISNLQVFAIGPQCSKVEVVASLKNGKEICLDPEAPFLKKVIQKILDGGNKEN
Description: as §4, §5

CXCL12 (SDF-1α) = molecular target: T3, CXCL12 (SDF-1α) (UniProt P48061-2 22-89); assay: as above
T3 construct: also called CXCL12 (Peprotech)
Description: as §4, §5

CXCL10 (IP10) = molecular target: T4, CXCL10 (IP10) (UniProt P02778 22-98); assay: as above
T4 construct: also called CXCL10 (R&D Systems)
T4 sequence (looked up): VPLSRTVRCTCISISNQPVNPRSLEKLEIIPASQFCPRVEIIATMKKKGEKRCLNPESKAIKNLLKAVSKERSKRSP
Description: as §4, §5

CXCL8 (IL-8) = molecular target: T5, CXCL8 (IL-8) (UniProt P10145 28-99); assay: as above
T5 construct: also called CXCL8 (R&D Systems)
T5 sequence (looked up): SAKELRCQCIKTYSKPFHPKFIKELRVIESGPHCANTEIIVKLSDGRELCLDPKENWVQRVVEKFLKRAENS
Description: as §4, §5

CXCL6 (GCP-2) = molecular target: T6, CXCL6 (GCP-2) (UniProt P80162 38-114, limits assumed); assay: as above
T6 construct: also called CXCL6 (R&D Systems)
T6 sequence (looked up): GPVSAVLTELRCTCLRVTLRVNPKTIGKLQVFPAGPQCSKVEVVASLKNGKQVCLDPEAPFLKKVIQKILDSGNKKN
Description: as §4, §5

[6] = molecular target: B3; assay: cell-based or functional assay; remark: listed apart in the source
[7] = molecular target: B4; assay: cell-based or functional assay
[8] = molecular target: T7, Glycosylated human CXCL13 (MEL cell derived) (human, UniProt O43927 23-104, glycosylated (site not stated)); assay: cell-based or functional assay
T7 sequence: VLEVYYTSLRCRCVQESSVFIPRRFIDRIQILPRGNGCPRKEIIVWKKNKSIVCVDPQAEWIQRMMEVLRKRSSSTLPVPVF

[9] = molecular target: B3; assay: SPR (BIAcore 2000), IgG captured on Protein G', human CXCL13 0.25-20 nM flowed; 1:1 Langmuir with mass transport limitation
Description: as §1

[10] = molecular target: B4; assay: SPR (BIAcore 2000), IgG captured on Protein G', cyno CXCL13 0.125-40 nM flowed; 1:1 Langmuir with mass transport limitation
Description: as §1

[11] = molecular target: B4; assay: SPR (BIAcore 2000), IgG captured on Protein G', cyno CXCL13 flowed; average of the 2 experiments of Table 11
Description: as §1

[12] = molecular target: B3; assay: cell-based or functional assay; remark: listed apart in the source
[13] = molecular target: B3; assay: SPR (BIAcore 2000), IgG amine-coupled to a CM3 chip, human CXCL13 0.10-0.60 nM flowed; 1:1 Langmuir (n=1, initial data)
Description: as §2, §3

[14] = molecular target: T8, Biotinylated human CXCL13 (Almac) (human, UniProt O43927 23-109, biotin at the most C terminal lysine residue); assay: SPR (BIAcore 2000), 28 RU biotinylated human CXCL13 captured on streptavidin, Fab 0.065-2.105 nM flowed
T8 construct: also called human CXCL13 biotinylated near the C-terminus (Almac custom synthesis)
T8 sequence: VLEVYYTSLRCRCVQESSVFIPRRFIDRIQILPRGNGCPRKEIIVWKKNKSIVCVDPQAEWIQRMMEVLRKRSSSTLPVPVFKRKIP
Description: Standard amine linkage chemistry was employed to create blank (Fc 1) and 228 and 303 RU surfaces of Streptavidin (Perbio/Pierce 21125) on Flow cells (Fc) 2 and 3, respectively, of a normalized CM5 chip (BIAcore, BR-1000-14). This Fc 3 streptavidin surface was used to capture 28 RUs human CXCL13 biotinylated near the C-terminus (Almac custom synthesis).

[15] = molecular target: B1; assay: CXCL13 FLISA competition: soluble chemokine titrated against 0.31 nM Antibody 1 germlined IgG1 binding to bead-bound biotinylated human CXCL13 (n = 1)
Description: as §4, with “10 μL 5 nM Goat anti-human (H+L) Alexa Fluor®-647 (Invitrogen A21445), 10 μL 0.31 nM Antibody 1 (germlined IgG) and 20 μL Bead/biotinylated CXCL13 mix were then added and the plates incubated for 4 hours at room temperature.” left out
(§6) Specificity of the germlined Antibody 1 IgG₁ for human CXCL13 (MEL cell derived) over other members of the CXC family of chemokines was determined using the CXCL13 FLISA (Fluorescence linked immunosorbent assay). […] The biotinylated human CXCL13 antibody-binding interaction was detected with a fluorescently tagged anti-human IgG antibody using Fluorescence Microvolume assay Technology (refer to “Assay Materials and Methods” for details). […]

[16] = molecular target: B1; assay: CXCL13 FLISA competition: soluble chemokine titrated against Antibody 1 germlined IgG1 binding to bead-bound biotinylated human CXCL13 (n = 1)
Description: as §4, with “10 μL 5 nM Goat anti-human (H+L) Alexa Fluor®-647 (Invitrogen A21445), 10 μL 0.31 nM Antibody 1 (germlined IgG) and 20 μL Bead/biotinylated CXCL13 mix were then added and the plates incubated for 4 hours at room temperature.” left out
as §6

## B1
[1]
  Kd: 0.0414 nM
  koff: 0.000712 s⁻¹
  kon: 1.77e+07 M⁻¹ s⁻¹
[2]
  IC50, human tonsillar B cell chemotaxis assay (100 nM human non-glycosylated CXCL13, ED80; n=4): 9.59 nM
[3]
  IC50, LANCE CXCL13 cAMP assay (CHO Gqi5 hCXCR5 cells): 1.6 nM
[4]
  IC50, LANCE CXCL13 cAMP assay (CHO Gqi5 hCXCR5 cells): 0.3 nM
[5]
  Kd: 0.285 nM
  koff: 0.00104 s⁻¹
  kon: 3.63e+06 M⁻¹ s⁻¹
CXCL3 (GROγ)
  binding result: no binding (tested: 1 µM)
CXCL5 (ENA-78)
  binding result: no binding (tested: 1 µM)
CXCL12 (SDF-1α)
  binding result: no binding (tested: 1 µM)
CXCL10 (IP10)
  binding result: no binding (tested: 1 µM)
CXCL8 (IL-8)
  binding result: no binding (tested: 1 µM)
CXCL6 (GCP-2)
  binding result: no binding (tested: 1 µM)
[6]
  IC50, B300.19 hCXCR5 chemotaxis assay (ED80 concentration of CXCL13): 6.22 nM
[7]
  IC50, B300.19 hCXCR5 chemotaxis assay (ED80 concentration of CXCL13): 4.53 nM
[8]
  IC50, B300.19 hCXCR5 chemotaxis assay (ED80 concentration of CXCL13): 3.94 nM
[9]
  Kd: 0.0322 nM and 0.0504 nM and 0.0417 nM
  koff: 0.000684 s⁻¹ and 0.000715 s⁻¹ and 0.000736 s⁻¹
  kon: 2.13e+07 M⁻¹ s⁻¹ and 1.42e+07 M⁻¹ s⁻¹ and 1.76e+07 M⁻¹ s⁻¹
[10]
  Kd: 0.033 nM and 0.0291 nM
  koff: 0.00065 s⁻¹ and 0.000599 s⁻¹
  kon: 1.97e+07 M⁻¹ s⁻¹ and 2.05e+07 M⁻¹ s⁻¹
[11]
  Kd: 0.0311 nM
  koff: 0.000625 s⁻¹
  kon: 2.01e+07 M⁻¹ s⁻¹
[12]
  IC50, CXCL13 mediated CHO Gqi5 hCXCR5 c4.4 Ca2+ release assay (FLIPR): 10.4 nM
[13]
  Kd: 0.259 nM
  koff: 0.000524 s⁻¹
  kon: 2.02e+06 M⁻¹ s⁻¹

B2: Antibody 1 (germlined IgG1) Fab (Fab, V domains shown)
VH: EVQLLESGGGLVQPGGSLRLSCAASGFTFGNSWMSWVRQAPGKGLEWVSAISGSGGSTYYADSVKGRFTISRDNSKNTLYLQMNSLRAEDTAVYYCTRDLPGIAVAGYWGQGTLVTVSS
VL: DTQMTQSPSTLSASVGDRVTITCRASEGIYHWLAWYQQKPGKAPKLLIYKASSLASGVPSRFSGSGSGTEFTLTISSLQPDDFATYYCQQYSNYPLTFGGGTKLEIKR
notes: also called Size Exclusion Chromatography monomerized Fab fragments of Antibody 1
[14]
  Kd: 0.185 nM
  koff: 0.00166 s⁻¹
  kon: 8.98e+06 M⁻¹ s⁻¹

## B3
[15]
  IC50: 0.2 nM

## B4
[16]
  IC50: 0.8 nM
